Assay results from patent US20110045003A1 (SYNOVEX, published 2011).

T1: recombinant his-tagged human Cad-11 (R&D Systems) (human, UniProt P55287 54-617)
T1 construct: also called rhCad-11; recombinant human Cad-11; not shown: his tag
T1 sequence: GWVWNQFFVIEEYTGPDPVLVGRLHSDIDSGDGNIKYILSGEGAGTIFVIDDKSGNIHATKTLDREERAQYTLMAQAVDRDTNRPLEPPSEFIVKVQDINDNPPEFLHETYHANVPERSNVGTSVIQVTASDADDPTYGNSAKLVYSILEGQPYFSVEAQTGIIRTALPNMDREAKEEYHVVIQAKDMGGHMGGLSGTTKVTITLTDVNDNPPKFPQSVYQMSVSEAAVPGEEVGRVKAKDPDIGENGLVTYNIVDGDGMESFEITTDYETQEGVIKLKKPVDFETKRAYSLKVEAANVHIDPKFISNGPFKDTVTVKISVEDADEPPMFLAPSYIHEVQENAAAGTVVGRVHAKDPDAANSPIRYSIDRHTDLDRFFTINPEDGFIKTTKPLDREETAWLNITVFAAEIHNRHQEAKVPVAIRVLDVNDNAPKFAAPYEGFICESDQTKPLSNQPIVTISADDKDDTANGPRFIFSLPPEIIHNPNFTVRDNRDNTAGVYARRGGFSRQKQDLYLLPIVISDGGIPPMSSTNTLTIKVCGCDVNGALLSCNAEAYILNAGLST

T2: BSA coupled 37-mer Cad-11 peptide encompassing the Cad-11 immunogen (UniProt P55287 54-90, limits assumed, linked to BSA)
T2 construct: domain: 37-mer peptide encompassing the Cad-11 immunogen; also called Cad-11 antigen; Cad-11 peptide immunogen
T2 peptide (looked up): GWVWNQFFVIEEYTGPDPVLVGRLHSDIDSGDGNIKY

T3: Cad-20 EC1 domain peptide (region overlapping G1-G33 of Cad-11 EC1) (UniProt Q9HBT6 60-92, conjugated to biotin)
T3 construct: domain: first 33 amino acids of the EC1 domain
T3 peptide (looked up): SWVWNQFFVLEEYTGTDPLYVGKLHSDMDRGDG

T4: Cad-24 EC1 domain peptide (region overlapping G1-G33 of Cad-11 EC1) (UniProt Q86UP0 45-77, conjugated to biotin)
T4 construct: domain: first 33 amino acids of the EC1 domain
T4 peptide (looked up): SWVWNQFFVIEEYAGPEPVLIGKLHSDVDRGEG

T5: Cad-18 EC1 domain peptide (region overlapping G1-G33 of Cad-11 EC1) (UniProt Q13634 54-86, conjugated to biotin)
T5 construct: domain: first 33 amino acids of the EC1 domain
T5 peptide (looked up): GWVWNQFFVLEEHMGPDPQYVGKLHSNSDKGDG

T6: Cad-7 EC1 domain peptide (region overlapping G1-G33 of Cad-11 EC1) (UniProt Q9ULB5 48-80, conjugated to biotin)
T6 construct: domain: first 33 amino acids of the EC1 domain
T6 peptide (looked up): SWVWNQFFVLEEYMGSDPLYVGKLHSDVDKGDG


Legend:
[1] = biological target: T1, recombinant his-tagged human Cad-11 …; assay: SPR, rhCad-11 immobilized, SDP051 as analyte, 2 state reaction model (kd1)
Experimental: To determine the affinity of SDP051 for recombinant his-tagged human Cad-11, rhCad-11 (R&D Systems) was immobilized to the chip at a single concentration, high resolution kinetics were determined for SDP051, and a 2-state reaction binding model was successfully fitted to the kinetic data.
Kinetic data were obtained at a flow rate of 40 μL/min to minimize any potential mass transfer effects. An analyte concentration series ranging from 12.5 nM to 0.195 nM was prepared by serial dilution. Two repeats of the blank (no mAb) and the 3.125 nM (first and last cycle) concentration of the analyte were programmed into the kinetic runs in order to check the stability of both the surface and analyte over the kinetic cycles. The SDP051 was injected over the Fcs for 360 seconds, long enough to observe the curvature in association phase.
As rhCad-11 is homodimeric and therefore contained two identical binding epitopes, it is likely that individual mAb molecules become bound sequentially through a first binding site and then both binding sites.

[2] = biological target: T2, BSA coupled 37-mer Cad-11 peptide …; assay: ELISA on BSA coupled 37-mer cadherin peptides, coat 500 ng/ml
Experimental: A dilution series from 5 μg/ml to 8 ng/ml in a volume of 100 μl/well of each the humanized anti-Cad-11 antibodies were incubated in the peptide coated wells and incubated at 22° C. for 1 hr. Antibody solution was removed from the wells and the plate washed twice with 200 μl/well of 0.05% Tween-PBS at 22° C. and blotted dry. The goat-anti mouse IgG (Pierce # 31432) was added to each well to plate at a 1:1000 dilution, 100 μl/well and incubate at 22° C. for 30 min. The secondary antibody solution was removed and the plate washed twice with 200 μl/well of 0.05% Tween-PBS at 22° C. and blotted dry. The reaction was developed by adding 100 μl/well tetramethylbenzidine (TMB) reagent IgG (Pierce # 34022, 1 step Turbo TMB-ELISA) to plate and developed at 22° C. for 5 min.
The greatest cross reactivity was seen against Cad-8. […] This assay was repeated with the Cad-11, Cad-8 and Cad-18 antigens with a lower antigen coat concentration of 50 ng/ml and a wider dilution series of the SDP051 antibody (FIG. 41B). […] An EC50 for Cad-18 could not be established due to the low level of binding observed.

[3] = biological target: T3, Cad-20 EC1 domain peptide (region …); assay: ELISA on biotinylated EC1 domain peptide captured on a Neutravidin plate, goat anti-mouse IgG, TMB, A450
Experimental: (§1) The specificity of H1M1 and H14 anti-Cad-11 antibodies was tested further using an ELISA against the first 33 amino acids of the EC1 domains of Cad-11, Cad-7, Cad-8, Cad-20, Cad-24, Cad-9, Cad-18, and MN-Cad. Peptides corresponding to the region of Cad-7, Cad-8, Cad-20, Cad-24, Cad-9, Cad-18, MN-Cad that overlapped with the G1-G33 region of the Cad-11 EC1 domain were synthesized and conjugated to biotin. 100 μl of a 30 ng/ml solution of each of these peptides in PBS-Tween (0.05%) were incubated in each well of a 96-well Netravidin plate for 2-3 hrs at 4° C. and then washed twice with PBS-Tween (0.05%). Various concentrations of the anti-Cad-11 antibody were incubated in each well for 1 hr at 22° C. and then washed twice with PBS-Tween (0.05%). 100 μl of a 1/1000 dilution of a goat anti-mouse IgG secondary antibody were added to each well, incubated for 30 min at 22° C., and then washed twice with PBS-Tween (0.05%). 100 μl/well of room temperature TMB (3,3′,5,5′-tetramethylbenzidine) reagent was added to each well and color was allowed to develop for 5 min at 22° C.

[4] = biological target: T4, Cad-24 EC1 domain peptide (region …); assay: as above
Experimental: as §1

[5] = biological target: T5, Cad-18 EC1 domain peptide (region …); assay: as above
Experimental: as §1

[6] = biological target: T6, Cad-7 EC1 domain peptide (region …); assay: as above
Experimental: as §1

| koff [1] [s⁻¹] | fold greater binding to the Cad-11 antigen than to the related antigens from the other cadherins [2] [fold] | binding result [3] | binding result [4] | binding result [5] | binding result [6] | Binder |
| --- | --- | --- | --- | --- | --- | --- |
| 0.0043 | > 100 |  |  |  |  | humanized anti-Cad-11 EC1 antibody SDP051 (Vκ1/VH5) (antibody, IgG4, V domains shown, humanized IgG4 (S241P), kappa) VH: EVQLVQSGAEVKKPGASVKVSCKASGYSFTGYFMNWVRQAPGQGLEWIGRINPYTGDTFYNQKFKGRVTITVDKSTSTAYMELSSLRSEDTAVYYCGRLGSRYWYFDVWGQGTTVTVSS VL: DVLMTQTPLSSPVTLGQPASISCRSSQSIIHSNGNTYLEWYLQKPGQSPQLLIYKVSNRFSGVPDRFTGSGSGTDFTLKISRVEAEDVGVYYCFQGSHVPWTFGQGTKLEIK |
|  |  | no binding | no binding | no binding | no binding | murine H1M1 monoclonal anti-Cad-11 EC1 antibody (hybridoma H1M1, ATCC PTA-9699) (antibody, V domains shown, Biotinylated when used as the labelled competitor in Example 14; the letters are unchanged., murine antibody raised against Peptide 4; also called SYN0012; SYN0012/H1M1) VH: EVQLQQSGPELVKPGASVKISCKASGYSFTGYFMNWVKQSHGKSLEWIGRINPYTGDTFYNQKFKGKATLTVDKSSSTAHMELLSLSSEDSAVYYCGRLGSRYWYFDVWGAGTTVTVSS VL: DVLMTQTPLSLPVSLGDQASISCRSSQSIIHSNGNTYLEWYLQKPGQSPKLLIYKVSNRFSGVPDRFTGSGSGTDFTLKISRVEAEDLGVYYCFQGSHVPWTFGGGTKLEIK |
